Experimental data reported in patent publication US20200199241A1 (Chugai, published 2020).
Residue numbers refer to the chain shown, from its start.

B1: IgG1-F240 (antibody)
heavy: QVQLQESGPGLVKPSETLSLTCAVSGHSISHDHAWSWVRQPPGEGLEWIGFISYSGITNYNPSLQGRVTISRDNSKNTLYLQMNSLRAEDTAVYYCARSLARTTAMDYWGEGTLVTVSSASTKGPSVFPLAPSSKSTSGGTAALGCLVKDYFPEPVTVSWNSGALTSGVHTFPAVLQSSGLYSLSSVVTVPSSSLGTQTYICNVNHKPSNTKVDKKVEPKSCDKTHTCPPCPAPELLGGPSVFLFPPKPKDTLYISRTPEVTCVVVDVSHEDPEVKFNWYVDGVEVHNAKTKPREEQYNSTYRVVSVLTVLHQDWLNGKEYKCKVSNKALPAPIEKTISKAKGQPREPQVYTLPPSRDELTKNQVSLTCLVKGFYPSDIAVEWESNGQPENNYKTTPPVLDSDGSFFLYSKLTVDKSRWQQGNVFSCSVFHEALHYHYTQKSLSLSP
light: not shown
notes: EU numbering; copies: 2 + 2
B2: IgG1-F268 (antibody)
heavy: B1 heavy with P240A
light: not shown
notes: EU numbering; copies: 2 + 2
B3: IgG1-F265 (antibody)
heavy: B1 heavy with E384A, F430Y
light: not shown
notes: EU numbering; copies: 2 + 2
B4: IgG1-F270 (antibody)
heavy: B1 heavy with N327G
light: not shown
notes: EU numbering; copies: 2 + 2
B5: IgG1-F275 (antibody)
heavy: B1 heavy with S241K, V310P, E384A, F430M
light: not shown
notes: EU numbering; copies: 2 + 2
B6: IgG1-F274 (antibody)
heavy: B1 heavy with E382A, E384A
light: not shown
notes: EU numbering; copies: 2 + 2
B7: IgG1-F242 (antibody)
heavy: B1 heavy with F430H
light: not shown
notes: EU numbering; copies: 2 + 2
B8: IgG1-F252 (antibody)
heavy: B1 heavy with F430W
light: not shown
notes: EU numbering; copies: 2 + 2
B9: IgG1-F299 (antibody)
heavy: B1 heavy with S241K, V310P, Q313A, F430Y
light: not shown
notes: EU numbering; copies: 2 + 2
B10: IgG1-F250 (antibody)
heavy: B1 heavy with F430T
light: not shown
notes: EU numbering; copies: 2 + 2
B11: IgG1-F293 (antibody)
heavy: B1 heavy with V310P, E382A, E384A, F430I
light: not shown
notes: EU numbering; copies: 2 + 2
B12: IgG1-F251 (antibody)
heavy: B1 heavy with F430V
light: not shown
notes: EU numbering; copies: 2 + 2
B13: IgG1-F267 (antibody)
heavy: B1 heavy with T309Q, E384A, F430Y
light: not shown
notes: EU numbering; copies: 2 + 2
B14: IgG1-F301 (antibody)
heavy: B1 heavy with S241K, V310P, Q313A, D314A, F430Y
light: not shown
notes: EU numbering; copies: 2 + 2
B15: IgG1-F244 (antibody)
heavy: B1 heavy with F430K
light: not shown
notes: EU numbering; copies: 2 + 2
B16: IgG1-F286 (antibody)
heavy: B1 heavy with S241K, V310P, E384A, F430Y
light: not shown
notes: EU numbering; copies: 2 + 2
B17: IgG1-F305 (antibody)
heavy: B1 heavy with T258E, V310P, E384A, F430M
light: not shown
notes: EU numbering; copies: 2 + 2
B18: IgG1-F278 (antibody)
heavy: B1 heavy with T309Q, V310P, E384A, F430M
light: not shown
notes: EU numbering; copies: 2 + 2
B19: IgG1-F263 (antibody)
heavy: B1 heavy with T309Q, Q313H, F430M
light: not shown
notes: EU numbering; copies: 2 + 2
B20: IgG1-F255 (antibody)
heavy: B1 heavy with Y254W, Q313A, F430Y
light: not shown
notes: EU numbering; copies: 2 + 2
B21: IgG1-F249 (antibody)
heavy: B1 heavy with F430S
light: not shown
notes: EU numbering; copies: 2 + 2
B22: IgG1-F287 (antibody)
heavy: B1 heavy with V310P, E382A, E384A
light: not shown
notes: EU numbering; copies: 2 + 2
B23: IgG1-F258 (antibody)
heavy: B1 heavy with T309Q, F430Y
light: not shown
notes: EU numbering; copies: 2 + 2
B24: IgG1-F266 (antibody)
heavy: B1 heavy with T309A, E384A, F430Y
light: not shown
notes: EU numbering; copies: 2 + 2
B25: IgG1-F257 (antibody)
heavy: B1 heavy with T309A, F430Y
light: not shown
notes: EU numbering; copies: 2 + 2
B26: IgG1-F289 (antibody)
heavy: B1 heavy with T258E, F430Y
light: not shown
notes: EU numbering; copies: 2 + 2
B27: IgG1-F262 (antibody)
heavy: B1 heavy with T309A, Q313H, F430M
light: not shown
notes: EU numbering; copies: 2 + 2
B28: IgG1-F272 (antibody)
heavy: B1 heavy with E382A
light: not shown
notes: EU numbering; copies: 2 + 2
B29: IgG1-F284 (antibody)
heavy: B1 heavy with V310P, F430Y
light: not shown
notes: EU numbering; copies: 2 + 2
B30: IgG1-F279 (antibody)
heavy: B1 heavy with V310P, Q313H, E384A, F430M
light: not shown
notes: EU numbering; copies: 2 + 2
B31: IgG1-F298 (antibody)
heavy: B1 heavy with Q313A, D314A, F430Y
light: not shown
notes: EU numbering; copies: 2 + 2
B32: IgG1-F277 (antibody)
heavy: B1 heavy with S241K, V310P, F430Y
light: not shown
notes: EU numbering; copies: 2 + 2
B33: IgG1-F261 (antibody)
heavy: B1 heavy with T309Q, Q313A, F430M
light: not shown
notes: EU numbering; copies: 2 + 2
B34: IgG1-F260 (antibody)
heavy: B1 heavy with T309A, Q313A, F430M
light: not shown
notes: EU numbering; copies: 2 + 2
B35: IgG1-F256 (antibody)
heavy: B1 heavy with Y254W, T309Q, Q313A, F430Y
light: not shown
notes: EU numbering; copies: 2 + 2
B36: IgG1-F292 (antibody)
heavy: B1 heavy with S241K, V310P, E384A, F430I
light: not shown
notes: EU numbering; copies: 2 + 2
B37: IgG1-F283 (antibody)
heavy: B1 heavy with V310P, E384A, F430Y
light: not shown
notes: EU numbering; copies: 2 + 2
B38: IgG1-F303 (antibody)
heavy: B1 heavy with T309P, F430Y
light: not shown
notes: EU numbering; copies: 2 + 2
B39: IgG1-F259 (antibody)
heavy: B1 heavy with D272F, F430M
light: not shown
notes: EU numbering; copies: 2 + 2
B40: IgG1-F285 (antibody)
heavy: B1 heavy with V310P
light: not shown
notes: EU numbering; copies: 2 + 2
B41: IgG1-F245 (antibody)
heavy: B1 heavy with F430N
light: not shown
notes: EU numbering; copies: 2 + 2
B42: IgG1-F288 (antibody)
heavy: B1 heavy with T258E, E384A, F430M
light: not shown
notes: EU numbering; copies: 2 + 2
B43: IgG1-F243 (antibody)
heavy: B1 heavy with F430I
light: not shown
notes: EU numbering; copies: 2 + 2
B44: IgG1-F295 (antibody)
heavy: B1 heavy with S241K, E382A, E384A
light: not shown
notes: EU numbering; copies: 2 + 2
B45: IgG1-F253 (antibody)
heavy: B1 heavy with F430Y
light: not shown
notes: EU numbering; copies: 2 + 2
B46: IgG1-F302 (antibody)
heavy: B1 heavy with T258E, T309P, F430M
light: not shown
notes: EU numbering; copies: 2 + 2
B47: IgG1-F282 (antibody)
heavy: B1 heavy with V310P, E384A, F430L
light: not shown
notes: EU numbering; copies: 2 + 2
B48: IgG1-F241 (antibody)
heavy: B1 heavy with F430G
light: not shown
notes: EU numbering; copies: 2 + 2
B49: IgG1-F290 (antibody)
heavy: B1 heavy with T258E, E384A, F430Y
light: not shown
notes: EU numbering; copies: 2 + 2
B50: IgG1-F269 (antibody)
heavy: B1 heavy with V307A
light: not shown
notes: EU numbering; copies: 2 + 2
B51: IgG1-F280 (antibody)
heavy: B1 heavy with S241K, D272F, V310P, F430M
light: not shown
notes: EU numbering; copies: 2 + 2
B52: IgG1-F300 (antibody)
heavy: B1 heavy with S241K, V310P, D314A, F430Y
light: not shown
notes: EU numbering; copies: 2 + 2
B53: IgG1-F264 (antibody)
heavy: B1 heavy with E384A, F430M
light: not shown
notes: EU numbering; copies: 2 + 2
B54: IgG1-F296 (antibody)
heavy: B1 heavy with Q313A, F430Y
light: not shown
notes: EU numbering; copies: 2 + 2
B55: IgG1-F246 (antibody)
heavy: B1 heavy with F430P
light: not shown
notes: EU numbering; copies: 2 + 2
B56: IgG1-F254 (antibody)
heavy: B1 heavy with Y254W, T309Q, F430Y
light: not shown
notes: EU numbering; copies: 2 + 2
B57: IgG1-F247 (antibody)
heavy: B1 heavy with F430Q
light: not shown
notes: EU numbering; copies: 2 + 2
B58: IgG1-F304 (antibody)
heavy: B1 heavy with Y254W, V310P, F430Y
light: not shown
notes: EU numbering; copies: 2 + 2
B59: IgG1-F297 (antibody)
heavy: B1 heavy with D314A, F430Y
light: not shown
notes: EU numbering; copies: 2 + 2
B60: IgG1-F294 (antibody)
heavy: B1 heavy with S241K, V310P
light: not shown
notes: EU numbering; copies: 2 + 2

Biological target: T1, human FcRn (soluble human FcRn complexed with β2-microglobulin) (human, UniProt P61769 21-119, limits assumed)
T1 construct: also called hFcRn
Test: SPR, pH 7.0;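 note: antibodies captured on a Protein L sensor chip with human FcRn injected as analyte, KD calculated from fitted association and dissociation rate constants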

T1 sequence (chain, as listed by the source limits assumed, chain 1 of 2): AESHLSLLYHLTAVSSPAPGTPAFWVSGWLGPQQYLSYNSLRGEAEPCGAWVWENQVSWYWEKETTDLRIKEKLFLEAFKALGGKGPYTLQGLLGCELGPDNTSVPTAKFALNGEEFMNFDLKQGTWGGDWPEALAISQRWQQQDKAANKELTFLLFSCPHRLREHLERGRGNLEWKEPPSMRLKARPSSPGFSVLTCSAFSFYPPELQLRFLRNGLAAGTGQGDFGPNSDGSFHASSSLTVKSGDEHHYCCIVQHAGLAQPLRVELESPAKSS
T1 sequence (P61769 21-119 limits assumed, chain 2 of 2): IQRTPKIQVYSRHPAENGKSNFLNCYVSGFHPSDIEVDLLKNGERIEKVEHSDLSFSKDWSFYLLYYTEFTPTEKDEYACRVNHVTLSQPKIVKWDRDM

In order of falling Kd:
1. B48  1500 nM
2. B15  1300 nM
3. B55  1100 nM
4. B8  1000 nM
5. B7  850 nM
6. B6  760 nM
7. B1  720 nM
8. B45  710 nM
9. B3  680 nM
10. B28  680 nM
11. B44  680 nM
12. B38  670 nM
13. B4  660 nM
14. B21  640 nM
15. B2  630 nM
16. B50  520 nM
17. B59  510 nM
18. B25  500 nM
19. B54  490 nM
20. B26  480 nM
21. B31  480 nM
22. B24  470 nM
23. B41  470 nM
24. B49  460 nM
25. B57  440 nM
26. B13  320 nM
27. B23  320 nM
28. B10  290 nM
29. B39  280 nM
30. B53  280 nM
31. B12  190 nM
32. B27  190 nM
33. B42  190 nM
34. B46  190 nM
35. B43  180 nM
36. B32  130 nM
37. B34  130 nM
38. B16  120 nM
39. B19  110 nM
40. B20  110 nM
41. B60  110 nM
42. B22  100 nM
43. B29  100 nM
44. B37  100 nM
45. B40  99 nM
46. B9  94 nM
47. B33  84 nM
48. B52  83 nM
49. B56  75 nM
50. B14  72 nM
51. B30  61 nM
52. B35  54 nM
53. B11  53 nM
54. B5  42 nM
55. B51  41 nM
56. B18  30 nM
57. B47  29 nM
58. B17  27 nM
59. B36  23 nM
60. B58  16 nM
